This passage reports HIV-1 infectivity of U937 clone 10 cells preconditioned with RAP for 15 min, then with α1PI, and cultured for 8 days results from patent US20180092964A1.

The experiment has as its target VLDL receptor (VLDLR) on U937 clone 10 cells (UniProt P98155). Kind of experiment: cell-based or functional assay.

“low endotoxin recombinant RAP (LDL Receptor-Associated Protein) (from UniProt P30533 35-357)” yielded an HIV-1 infectivity of U937 clone 10 cells preconditioned with RAP for 15 min, then with α1PI, and cultured for 8 days of 93%.
